“And” between values parts separate entries of the source, which are not always exact repeats. Equal values may be shown once.
T1: KKFF (myc-tagged wild-type ERGIC-53) (human), P49257
T1 chain: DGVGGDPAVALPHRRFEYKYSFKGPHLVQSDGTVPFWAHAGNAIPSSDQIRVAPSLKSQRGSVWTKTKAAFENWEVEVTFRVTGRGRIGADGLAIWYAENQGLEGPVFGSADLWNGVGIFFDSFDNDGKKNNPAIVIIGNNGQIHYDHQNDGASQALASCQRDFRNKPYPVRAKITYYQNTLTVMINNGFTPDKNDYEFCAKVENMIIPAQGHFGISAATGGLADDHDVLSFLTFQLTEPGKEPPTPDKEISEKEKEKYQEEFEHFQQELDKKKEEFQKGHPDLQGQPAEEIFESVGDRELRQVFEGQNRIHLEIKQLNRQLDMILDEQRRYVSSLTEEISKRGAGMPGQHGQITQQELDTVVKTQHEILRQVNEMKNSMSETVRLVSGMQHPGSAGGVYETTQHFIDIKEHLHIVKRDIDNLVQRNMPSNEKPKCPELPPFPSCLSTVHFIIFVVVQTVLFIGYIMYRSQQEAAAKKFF


Legend:
[1] = target: KKAA construct (myc-tagged ERGIC-53 with its cytoplasmic tail mutated to R2A6KKAA) (human)
[2] = target: T1, KKFF (myc-tagged wild-type ERGIC-53) …; details: remark: other sources report otherwise

| stoichiometry N [1] | stoichiometry N [2] | Molecule |
| --- | --- | --- |
| 2 and 6 | – | KKAA construct (myc-tagged ERGIC-53 with its cytoplasmic tail mutated to R2A6KKAA) (natural protein) |
| – | 2 and 6 | KKFF (myc-tagged wild-type ERGIC-53), P49257 31-510 (natural protein) DGVGGDPAVALPHRRFEYKYSFKGPHLVQSDGTVPFWAHAGNAIPSSDQIRVAPSLKSQRGSVWTKTKAAFENWEVEVTFRVTGRGRIGADGLAIWYAENQGLEGPVFGSADLWNGVGIFFDSFDNDGKKNNPAIVIIGNNGQIHYDHQNDGASQALASCQRDFRNKPYPVRAKITYYQNTLTVMINNGFTPDKNDYEFCAKVENMIIPAQGHFGISAATGGLADDHDVLSFLTFQLTEPGKEPPTPDKEISEKEKEKYQEEFEHFQQELDKKKEEFQKGHPDLQGQPAEEIFESVGDRELRQVFEGQNRIHLEIKQLNRQLDMILDEQRRYVSSLTEEISKRGAGMPGQHGQITQQELDTVVKTQHEILRQVNEMKNSMSETVRLVSGMQHPGSAGGVYETTQHFIDIKEHLHIVKRDIDNLVQRNMPSNEKPKCPELPPFPSCLSTVHFIIFVVVQTVLFIGYIMYRSQQEAAAKKFF |
